Experimental data from paper PMC11933295, “Inhibiting hedgehog signal by a patched-1 antibody” (Cell Discovery, 2025).

Target: T1, engineered human PTCH1 protein (PTCH1*, a functional PTCH1 variant with two cytosolic loops truncated) (Homo sapiens, stabilised)
T1 chain: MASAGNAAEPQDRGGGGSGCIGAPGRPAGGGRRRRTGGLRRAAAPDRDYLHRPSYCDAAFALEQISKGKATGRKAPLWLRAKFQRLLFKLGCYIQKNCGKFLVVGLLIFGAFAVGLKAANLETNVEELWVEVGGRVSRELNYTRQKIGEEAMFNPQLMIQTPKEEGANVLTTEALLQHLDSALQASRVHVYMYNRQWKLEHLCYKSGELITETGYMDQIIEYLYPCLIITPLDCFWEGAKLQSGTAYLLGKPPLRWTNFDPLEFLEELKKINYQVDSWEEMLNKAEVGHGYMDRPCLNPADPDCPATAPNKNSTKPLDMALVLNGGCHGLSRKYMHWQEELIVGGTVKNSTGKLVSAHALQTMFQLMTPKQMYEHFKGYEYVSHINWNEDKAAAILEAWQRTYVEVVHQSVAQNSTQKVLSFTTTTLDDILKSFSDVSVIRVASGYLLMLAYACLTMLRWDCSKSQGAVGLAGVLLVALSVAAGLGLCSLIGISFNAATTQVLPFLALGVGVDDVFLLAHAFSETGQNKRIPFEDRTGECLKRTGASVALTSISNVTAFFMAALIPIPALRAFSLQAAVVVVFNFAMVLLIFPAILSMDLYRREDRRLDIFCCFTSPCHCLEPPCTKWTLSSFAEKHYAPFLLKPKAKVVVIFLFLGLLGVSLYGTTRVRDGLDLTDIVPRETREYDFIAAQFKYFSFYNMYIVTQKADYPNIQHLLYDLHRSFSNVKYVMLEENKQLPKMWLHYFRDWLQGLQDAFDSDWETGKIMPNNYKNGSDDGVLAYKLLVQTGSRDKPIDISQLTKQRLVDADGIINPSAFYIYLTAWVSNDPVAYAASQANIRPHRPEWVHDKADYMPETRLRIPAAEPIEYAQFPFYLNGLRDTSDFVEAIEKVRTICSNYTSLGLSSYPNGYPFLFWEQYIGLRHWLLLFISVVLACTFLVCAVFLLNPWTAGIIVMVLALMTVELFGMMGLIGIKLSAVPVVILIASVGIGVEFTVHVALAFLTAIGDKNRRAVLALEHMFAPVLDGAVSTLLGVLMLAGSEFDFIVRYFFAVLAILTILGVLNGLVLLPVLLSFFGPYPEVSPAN
Experiment: cell-based or functional assay

B1: Fab^6H3 (Fab, V domains shown)
VH: EVQLVESGGGLVKPGGSRKLSCVASGFTLSDYGMHWVRQAPEKGLEWVAYIGSDSYTIYHADTMKGRFTISRDNAKNTLFLQMTSLRSEDTAMYYCGRNYGMDYWGQGTS
VL: VLTQSPAIMSASLGERVTLTCTASSSVTSSYLHWYQQKPGSSPKLWIYSTSNLPFGVSPRFSGSGSGTSFSLTISSMEAEDAATYYCHQFHRSPYTFGGGTK
- IC50 of the dose-dependent inhibition of HH signaling, Dual-Luciferase Reporter Assay in SHH-Light II cells; pair blocked: SHH with PTCH1: ~77.8 nM
